Data on four molecules can be found in patent US20210380669A1 (SCHOLAR ROCK, published 2021).

Where a chain is given by its changes, count along the chain named.

The target of one experiment is T1, histidine tagged hRGMc (human, UniProt Q6ZVN8 36-400).
T1 construct: also called human RGMc-his; not shown: histidine tag
T1 sequence: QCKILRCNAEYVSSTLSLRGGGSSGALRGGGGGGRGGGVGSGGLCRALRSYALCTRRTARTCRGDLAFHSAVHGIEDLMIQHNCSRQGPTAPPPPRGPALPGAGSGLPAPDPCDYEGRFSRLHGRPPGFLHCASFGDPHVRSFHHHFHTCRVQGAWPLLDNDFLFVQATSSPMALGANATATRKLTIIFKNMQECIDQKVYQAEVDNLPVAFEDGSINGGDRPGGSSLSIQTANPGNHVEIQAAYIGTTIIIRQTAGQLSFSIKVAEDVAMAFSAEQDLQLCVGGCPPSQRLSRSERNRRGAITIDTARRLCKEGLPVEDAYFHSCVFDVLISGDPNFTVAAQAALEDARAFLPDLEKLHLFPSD
In words: MSD-SET, full-length antibody against human RGMc-his. The protocol: The titration was then added to a pre-coated plate with a capture antibody (pre-labeled with an NHS-sulfotag) that depletes any free antigen from solution. After a 150 second incubation, the plate was washed 3 times and an SA-sulfotag reagent was added and incubated for 3 min. After additional washes the plate was read on a MesoQuickPlex SQ120.
A similar MSD-SET assay was performed with the full-length antibodies against the human RGMc-his antigen to determine binding affinity (KD)).

For experiment [1], the target named is T2, recombinant, soluble human RGMc fused to an Fc (human, UniProt Q6ZVN8 36-400, limits assumed).
T2 sequence: T1 sequence
In words: cell-based or functional assay.

For a further experiment, the target named is T3, histidine tagged hRGMa (human, UniProt Q96B86 46-425, limits assumed).
T3 construct: also called RGMa-his; not shown: histidine tag
T3 sequence: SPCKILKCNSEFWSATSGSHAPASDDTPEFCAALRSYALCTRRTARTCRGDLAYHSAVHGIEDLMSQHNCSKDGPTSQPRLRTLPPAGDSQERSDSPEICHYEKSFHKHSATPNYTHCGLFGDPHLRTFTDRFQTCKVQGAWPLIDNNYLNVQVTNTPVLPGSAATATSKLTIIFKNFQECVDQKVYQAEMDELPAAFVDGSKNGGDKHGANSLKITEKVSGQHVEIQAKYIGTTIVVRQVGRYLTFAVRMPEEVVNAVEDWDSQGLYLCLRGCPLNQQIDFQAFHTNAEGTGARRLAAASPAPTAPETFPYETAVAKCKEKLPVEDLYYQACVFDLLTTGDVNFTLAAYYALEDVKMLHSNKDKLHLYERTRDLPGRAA
In words: Octet (BLI), antibody on AHC biosensor, his-tagged hRGMa in solution (concentrations from paragraph 460). How it is done:
(§1) Antibodies that are selective for RGMc were generated using known techniques as describe herein. RGMc specificity over RGMa and RGMb was verified using an in vitro binding assay (i.e., Octet®). […] After loading, a baseline reading was obtained by placing the tips into 1× Kinetics Buffer before calculating the on rate, or association, of the antibodies by presenting them to histidine tagged hRGMc, hRGMa, or hRGMb, at varying concentrations (900 nM, 300 nM, 100 nM, and 33 nM). After reaching binding saturation, a dissociation step was performed to calculate the off rate by moving the tips back into 1× Kinetics Buffer. The rate of binding and dissociation can then be used to calculate the KD, or binding affinity of each antibody to the main target (RGMc) while ensuring no cross binding to RGM family members (RGMa and RGMb).
For orientation: In BLI a coated tip is dipped into the sample, and binding shifts an interference pattern.

Experiment [2] concerns the target T2, recombinant, soluble human RGMc fused …. The experiment is described as follows: cell-based or functional assay. This is another data set of the same source.
For another experiment, the target named is T4, histidine tagged hRGMb (human, UniProt Q6NW40 46-413).
T4 construct: not shown: histidine tag
T4 sequence: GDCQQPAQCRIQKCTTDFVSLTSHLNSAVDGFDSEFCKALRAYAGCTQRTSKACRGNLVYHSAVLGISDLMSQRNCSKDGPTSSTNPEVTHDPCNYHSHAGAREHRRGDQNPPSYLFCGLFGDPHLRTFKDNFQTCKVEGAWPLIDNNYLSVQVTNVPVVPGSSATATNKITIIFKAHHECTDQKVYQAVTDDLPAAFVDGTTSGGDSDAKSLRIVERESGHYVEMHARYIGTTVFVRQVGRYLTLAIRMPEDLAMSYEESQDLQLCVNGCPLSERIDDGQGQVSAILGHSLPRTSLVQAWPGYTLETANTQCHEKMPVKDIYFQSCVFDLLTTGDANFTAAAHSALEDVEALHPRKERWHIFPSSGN
In words: Octet (BLI), antibody on AHC biosensor, his-tagged hRGMb in solution (concentrations from paragraph 460). How it is done:
as §1

B1: SR-RC-AB9 (antibody, V domains shown)
VH: QVQLVQSGAEVKKPGSSVKVSCKASGGTFSSYSIQWVRQAPGQGLEWMGGIIPIFGVASYAQKFQGRVTITADESTSTAYMELSSLRSEDTAVYYCARGAIAATYGLGMDVWGQGTTVTVSS
VL: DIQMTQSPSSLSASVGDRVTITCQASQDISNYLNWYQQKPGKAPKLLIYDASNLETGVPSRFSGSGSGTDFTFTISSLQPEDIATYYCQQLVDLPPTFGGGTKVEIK
notes: Tested as a full-length antibody
In turn, B1 yielded a Kd in the experiment with histidine tagged hRGMc of 0.024 nM. Further, the “EC50 (ug/mL), BMP activity assay” value in experiment [1] is 3.45 µg/mL.

B2: SR-RC-AB3 (antibody, V domains shown)
VH: B1 VH with S33A, Q35S, V57T, S59N
VL: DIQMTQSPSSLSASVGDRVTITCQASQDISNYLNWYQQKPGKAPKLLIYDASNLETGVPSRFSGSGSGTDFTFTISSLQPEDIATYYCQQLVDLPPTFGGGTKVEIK
notes: Tested as a full-length antibody, captured by anti-human IgG Fc sensors; also called parental antibody
Regarding B2, the binding result in the experiment with histidine tagged hRGMa and in the experiment with histidine tagged hRGMb was “no binding (tested: 900 nM)” throughout. The molecule also returned a Kd in the experiment with histidine tagged hRGMc of 4.3 nM. Besides, the “EC50 (ug/mL), BMP activity assay” value in experiment [1] was 4.83 µg/mL. In addition, the “EC50 in the BRE reporter assay (BMP6 reporter activity, luciferase RLU)” value in experiment [2] came to 6.83 nM.

B3: SR-RC-AB8 (antibody, human IgG4, V domains shown)
VH: B1 VH with S30R, Q35S, S59N, I101Y, A102E
VL: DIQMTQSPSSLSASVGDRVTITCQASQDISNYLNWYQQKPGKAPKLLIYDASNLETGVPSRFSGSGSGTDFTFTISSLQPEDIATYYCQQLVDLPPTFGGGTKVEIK
Turning to B3, in the experiment with histidine tagged hRGMc, the Kd amounted to 0.039 nM. Moreover, in experiment [1], the “EC50 (ug/mL), BMP activity assay” value amounted to 3.63 µg/mL.

B4: SR-RC-AB7 (antibody, V domains shown)
VH: B1 VH with K19R, S33A, A102V
VL: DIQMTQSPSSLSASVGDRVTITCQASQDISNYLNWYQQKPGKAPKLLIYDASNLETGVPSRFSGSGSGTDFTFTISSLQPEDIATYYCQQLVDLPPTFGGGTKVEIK
notes: as for B1
As for B4, the Kd with histidine tagged hRGMc came out at 0.021 nM. Also, in experiment [1], the “EC50 (ug/mL), BMP activity assay” value is 3.87 µg/mL.

By Kd is commonly meant a measure of binding affinity in units of concentration. Read a high Kd as a looser complex.
